Biological target: recombinant biotinylated SARS-CoV-2 spike RBD, wild type (SARS-CoV-2, UniProt P0DTC2, biotinylated)
Assay: BLI
Details: both partners purified

Row | Binder | binding result
1 | monoclonal antibody 1-1D (human IgG1) (antibody, V domains shown) VH: EVQLVESGGGLIQPGGSLRLSCAASGFTVSSNYMSWVRQAPGKGLEWVSVIYSGGSTYFADSVKGRFTISRDNSKNTLYLQMNSLRAEDTAVYYCARGELGYSYGMDVWGQGTTVTVSS VL: QSVLTQPPSVSAAPGQKVTISCSGSSSNIGDNYVSWYQLLPGTAPKLLIYDNNQRPSGIPDRFSGSKSGTSATLGITGLQTGDEADYYCGTWDSSLSTGVFGGGTRLTVL | binds
2 | monoclonal antibody 10-5B (human IgG1) (antibody, V domains shown) VH: EVQLVESGGGLIQPGGSLRLSCAVSGFTVSRMSWVRQAPGKGLECVSVIYTGGNTDYADSVKGRFTISRDNSKNTLYLQMNSLRAEDTALYYCVRGSGGIHDAFDIWGQGTMVTVSS VL: DIQMTQSPSSVSASVGDRVTITCRASQGISTWLAWYQQKPGKAPKVLINAASGLQSGVPSRFSGSGSGTDFTLTISSLQPEDFATYYCQQAHSFPPTFGPGTKLEIK | binds

— PMC10107573 (Nature Communications, 2023)
